Measured values from patent US20240270846A1 (published 2024).
Residue numbers refer to the chain shown, from its start. Names and notes keep the numbering of the source.

B1: CE115HA000 A99K one-arm antibody (antibody, human IgG1, kappa, L234A L235A, N297A, name in Kabat numbering)
heavy: QVQLVESGGGVVQPGRSLRLSCAASGFTFSNAWMHWVRQAPGKGLEWVAQIKAKSNNYATYYAESVKGRFTISRDDSKNSLYLQMNSLKTEDTAVYYCRYVHYGKYYGVDAWGQGTTVTVSSASTKGPSVFPLAPSSKSTSGGTAALGCLVKDYFPEPVTVSWNSGALTSGVHTFPAVLQSSGLYSLSSVVTVPSSSLGTQTYICNVNHKPSNTKVDKKVEPKSCDKTHTCPPCPAPEAAGGPSVFLFPPKPKDTLMISRTPEVTCVVVDVSHEDPEVKFNWYVDGVEVHNAKTKPREEQYASTYRVVSVLTVLHQDWLNGKEYKCKVSNKALPAPIEKTISKAKGQPREPQVYTLPPSRCELTKNQVSLSCAVKGFYPSDIAVEWESNGQPENNYKTTPPVLDSDGSFFLVSKLTVDKSRWQQGNVFSCSVMHEALHNHYTQKSLSLSPDYKDDDDK
chain: EPKSSDKTHTCPPCPAPELLGGPSVFLFPPKPKDTLMISRTPEVTCVVVDVSHEDPEVKFNWYVDGVEVHNAKTKPREEQYNSTYRVVSVLTVLHQDWLNGKEYKCKVSNKALPAPIEKTISKAKGQPREPQVCTLPPSRDELTKNQVSLWCLVKGFYPSDIAVEWESNGQPENNYKTTPPVLDSDGSFFLYSKLTVDKSRWQQGNVFSCSVMHEALHNRYTQKSLSLSP
light: DIVMTQSPLSLPVTPGEPASISCRSSQSLVHSNRNTYLHWYQQKPGQAPRLLIYKVSNRFSGVPDRFSGSGSGTDFTLKISRVEAEDVGVYYCGQGTQVPYTFGQGTKLEIKRTVAAPSVFIFPPSDEQLKSGTASVVCLLNNFYPREAKVQWKVDNALQSGNSQESVTEQDSKDSTYSLSSTLTLSKADYEKHKVYACEVTHQGLSSPVTKSFNRGEC
notes: one-arm antibody (one Fab)
B2: CE115HA000 A102P one-arm antibody (antibody, human IgG1, kappa, L234A L235A, N297A, name in Kabat numbering)
heavy: B1 heavy with K105A, A111P
chain: B1 chain
light: B1 light
notes: one-arm antibody (one Fab)
B3: CE115HA000 D101H one-arm antibody (antibody, human IgG1, kappa, L234A L235A, N297A, name in Kabat numbering)
heavy: B1 heavy with K105A, D110H
chain: B1 chain
light: B1 light
notes: one-arm antibody (one Fab)
B4: CE115HA000 D72V one-arm antibody (antibody, human IgG1, kappa, L234A L235A, N297A, name in Kabat numbering)
heavy: B1 heavy with D75V, K105A
chain: B1 chain
light: B1 light
notes: one-arm antibody (one Fab)
B5: CE115HA000 D101S one-arm antibody (antibody, human IgG1, kappa, L234A L235A, N297A, name in Kabat numbering)
heavy: B1 heavy with K105A, D110S
chain: B1 chain
light: B1 light
notes: one-arm antibody (one Fab)
B6: CE115HA000 D101L one-arm antibody (antibody, human IgG1, kappa, L234A L235A, N297A, name in Kabat numbering)
heavy: B1 heavy with K105A, D110L
chain: B1 chain
light: B1 light
notes: one-arm antibody (one Fab)
B7: CE115HA000 D101N one-arm antibody (antibody, human IgG1, kappa, L234A L235A, N297A, name in Kabat numbering)
heavy: B1 heavy with K105A, D110N
chain: B1 chain
light: B1 light
notes: one-arm antibody (one Fab)
B8: CE115HA000 A99T one-arm antibody (antibody, human IgG1, kappa, L234A L235A, N297A, name in Kabat numbering)
heavy: B1 heavy with K105T
chain: B1 chain
light: B1 light
notes: one-arm antibody (one Fab)
B9: CE115HA000 E61Q one-arm antibody (antibody, human IgG1, kappa, L234A L235A, N297A, name in Kabat numbering)
heavy: B1 heavy with E64Q, K105A
chain: B1 chain
light: B1 light
notes: one-arm antibody (one Fab)
B10: CE115HA000 A99Q one-arm antibody (antibody, human IgG1, kappa, L234A L235A, N297A, name in Kabat numbering)
heavy: B1 heavy with K105Q
chain: B1 chain
light: B1 light
notes: one-arm antibody (one Fab)
B11: CE115HA000 A99S one-arm antibody (antibody, human IgG1, kappa, L234A L235A, N297A, name in Kabat numbering)
heavy: B1 heavy with K105S
chain: B1 chain
light: B1 light
notes: one-arm antibody (one Fab)
B12: CE115HA000 D101Q one-arm antibody (antibody, human IgG1, kappa, L234A L235A, N297A, name in Kabat numbering)
heavy: B1 heavy with K105A, D110Q
chain: B1 chain
light: B1 light
notes: one-arm antibody (one Fab)
B13: CE115HA000 G98A one-arm antibody (antibody, human IgG1, kappa, L234A L235A, N297A, name in Kabat numbering)
heavy: B1 heavy with G104A, K105A
chain: B1 chain
light: B1 light
notes: one-arm antibody (one Fab)
B14: CE115HA000 D101I one-arm antibody (antibody, human IgG1, kappa, L234A L235A, N297A, name in Kabat numbering)
heavy: B1 heavy with K105A, D110I
chain: B1 chain
light: B1 light
notes: one-arm antibody (one Fab)
B15: CE115HA000 A102I one-arm antibody (antibody, human IgG1, kappa, L234A L235A, N297A, name in Kabat numbering)
heavy: B1 heavy with K105A, A111I
chain: B1 chain
light: B1 light
notes: one-arm antibody (one Fab)
B16: CE115HA000 E61P one-arm antibody (antibody, human IgG1, kappa, L234A L235A, N297A, name in Kabat numbering)
heavy: B1 heavy with E64P, K105A
chain: B1 chain
light: B1 light
notes: one-arm antibody (one Fab)
B17: CE115HA000 D101R one-arm antibody (antibody, human IgG1, kappa, L234A L235A, N297A, name in Kabat numbering)
heavy: B1 heavy with K105A, D110R
chain: B1 chain
light: B1 light
notes: one-arm antibody (one Fab)
B18: CE115HA000 D101M one-arm antibody (antibody, human IgG1, kappa, L234A L235A, N297A, name in Kabat numbering)
heavy: B1 heavy with K105A, D110M
chain: B1 chain
light: B1 light
notes: one-arm antibody (one Fab)
B19: CE115HA000 D101Y one-arm antibody (antibody, human IgG1, kappa, L234A L235A, N297A, name in Kabat numbering)
heavy: B1 heavy with K105A, D110Y
chain: B1 chain
light: B1 light
notes: one-arm antibody (one Fab)
B20: CE115HA000 D101T one-arm antibody (antibody, human IgG1, kappa, L234A L235A, N297A, name in Kabat numbering)
heavy: B1 heavy with K105A, D110T
chain: B1 chain
light: B1 light
notes: one-arm antibody (one Fab)
B21: CE115HA000 A102V one-arm antibody (antibody, human IgG1, kappa, L234A L235A, N297A, name in Kabat numbering)
heavy: B1 heavy with K105A, A111V
chain: B1 chain
light: B1 light
notes: one-arm antibody (one Fab)
B22: CE115HA000 D101F one-arm antibody (antibody, human IgG1, kappa, L234A L235A, N297A, name in Kabat numbering)
heavy: B1 heavy with K105A, D110F
chain: B1 chain
light: B1 light
notes: one-arm antibody (one Fab)
B23: CE115HA000 D101K one-arm antibody (antibody, human IgG1, kappa, L234A L235A, N297A, name in Kabat numbering)
heavy: B1 heavy with K105A, D110K
chain: B1 chain
light: B1 light
notes: one-arm antibody (one Fab)
B24: CE115HA000 D101G one-arm antibody (antibody, human IgG1, kappa, L234A L235A, N297A, name in Kabat numbering)
heavy: B1 heavy with K105A, D110G
chain: B1 chain
light: B1 light
notes: one-arm antibody (one Fab)
B25: CE115HA000 D73N one-arm antibody (antibody, human IgG1, kappa, L234A L235A, N297A, name in Kabat numbering)
heavy: B1 heavy with D76N, K105A
chain: B1 chain
light: B1 light
notes: one-arm antibody (one Fab)
B26: CE115HA000 A102Y one-arm antibody (antibody, human IgG1, kappa, L234A L235A, N297A, name in Kabat numbering)
heavy: B1 heavy with K105A, A111Y
chain: B1 chain
light: B1 light
notes: one-arm antibody (one Fab)
B27: CE115HA000 D101V one-arm antibody (antibody, human IgG1, kappa, L234A L235A, N297A, name in Kabat numbering)
heavy: B1 heavy with K105A, D110V
chain: B1 chain
light: B1 light
notes: one-arm antibody (one Fab)
B28: CE115HA000 G98D one-arm antibody (antibody, human IgG1, kappa, L234A L235A, N297A, name in Kabat numbering)
heavy: B1 heavy with G104D, K105A
chain: B1 chain
light: B1 light
notes: one-arm antibody (one Fab)
B29: CE115HA000 A99Y one-arm antibody (antibody, human IgG1, kappa, L234A L235A, N297A, name in Kabat numbering)
heavy: B1 heavy with K105Y
chain: B1 chain
light: B1 light
notes: one-arm antibody (one Fab)
B30: CE115HA000 D101P one-arm antibody (antibody, human IgG1, kappa, L234A L235A, N297A, name in Kabat numbering)
heavy: B1 heavy with K105A, D110P
chain: B1 chain
light: B1 light
notes: one-arm antibody (one Fab)
B31: CE115HA000 A99L one-arm antibody (antibody, human IgG1, kappa, L234A L235A, N297A, name in Kabat numbering)
heavy: B1 heavy with K105L
chain: B1 chain
light: B1 light
notes: one-arm antibody (one Fab)
B32: CE115HA000 D73T one-arm antibody (antibody, human IgG1, kappa, L234A L235A, N297A, name in Kabat numbering)
heavy: B1 heavy with D76T, K105A
chain: B1 chain
light: B1 light
notes: one-arm antibody (one Fab)
B33: CE115HA000 D73R one-arm antibody (antibody, human IgG1, kappa, L234A L235A, N297A, name in Kabat numbering)
heavy: B1 heavy with D76R, K105A
chain: B1 chain
light: B1 light
notes: one-arm antibody (one Fab)

Biological target: T1, CD3 epsilon homodimer protein (UniProt P07766 23-126)
T1 construct: Immobilized on Sensor chip CM4 by amine coupling; construct not described; also called CD3 (CD3 epsilon)
T1 sequence (P07766 23-126): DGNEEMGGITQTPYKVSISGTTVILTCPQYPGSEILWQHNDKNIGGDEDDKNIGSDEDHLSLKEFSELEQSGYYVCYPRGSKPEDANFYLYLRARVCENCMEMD
Assay: SPR Biacore T200, CD3 epsilon homodimer on CM4 chip, antibody as analyte;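 further: Amine-coupled CD3 epsilon homodimer, run at 25 °C in HBS-EP+ buffer, ratio is bound amount of each single-residue H chain variant over that of the parent antibody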

| ratio of amounts bound (Y/X vs CE115HA000) | Binder |
| --- | --- |
| 1.48 | B1 |
| 0.14 | B2 |
| 1.21 | B3 |
| 1.43 | B4 |
| 1.16 | B5 |
| 0.62 | B6 |
| 2.02 | B7 |
| 0.84 | B8 |
| 1.07 | B9 |
| 0.91 | B10 |
| 0.82 | B11 |
| 2.35 | B12 |
| 1.1 | B13 |
| 1.18 | B14 |
| 1.48 | B15 |
| 1.07 | B16 |
| 0.24 | B17 |

| ratio of amounts bound (Y/X vs CE115HA000) | Binder |
| --- | --- |
| 1.2 | B18 |
| 0.49 | B19 |
| 0.79 | B20 |
| 1.43 | B21 |
| 0.75 | B22 |
| 0.63 | B23 |
| 1.38 | B24 |
| 0.94 | B25 |
| 0.91 | B26 |
| 1.33 | B27 |
| 0.26 | B28 |
| 1.59 | B29 |
| 0.2 | B30 |
| 1.13 | B31 |
| 0.63 | B32 |
| 1.04 | B33 |
